Experiments:
[1] = system: CC[n+]1c(-c2ccccc2)c2cc(N)ccc2c2ccc(N)cc21; assay: cells, lysate or membranes; details: 50 mM KPi pH 7.0, 5 mM MgSO4, no proton-motive force, 0.25-10 µM ethidium bromide, non-expressing control subtracted
[2] = system: CC[n+]1c(-c2ccccc2)c2cc(N)ccc2c2ccc(N)cc21; assay: facilitated ethidium influx in ATP-depleted cells, fluorimetry, hyperbolic fit; assay type: cell-based, Lactococcus lactis; details: 50 mM KPi pH 7.0, 5 mM MgSO4, no proton-motive force, 0.25-10 µM ethidium bromide, non-expressing control subtracted

Row | Substance | Km [1] [µM] | Km [2] [µM]
1 | LmrP (Lactococcus lactis) | 0.92 ± 0.30 | 
2 | LmrP (Lactococcus lactis; K357A) |  | 1.42 ± 0.29
3 | LmrP (Lactococcus lactis; R260A) |  | 1.49 ± 0.68
